Measurements reported in PMC12032919, “A blocking antibody against anti-Müllerian hormone restores ovulation and normal androgen levels in a spontaneous rat model of polycystic ovary syndrome” (eBioMedicine, 2025).

T1: human AMH procomplex (completely cleaved AMH, non-covalent complex of the N-terminal and C-terminal homodimers) (human)
T1 sequence (P03971 25-560, looked up): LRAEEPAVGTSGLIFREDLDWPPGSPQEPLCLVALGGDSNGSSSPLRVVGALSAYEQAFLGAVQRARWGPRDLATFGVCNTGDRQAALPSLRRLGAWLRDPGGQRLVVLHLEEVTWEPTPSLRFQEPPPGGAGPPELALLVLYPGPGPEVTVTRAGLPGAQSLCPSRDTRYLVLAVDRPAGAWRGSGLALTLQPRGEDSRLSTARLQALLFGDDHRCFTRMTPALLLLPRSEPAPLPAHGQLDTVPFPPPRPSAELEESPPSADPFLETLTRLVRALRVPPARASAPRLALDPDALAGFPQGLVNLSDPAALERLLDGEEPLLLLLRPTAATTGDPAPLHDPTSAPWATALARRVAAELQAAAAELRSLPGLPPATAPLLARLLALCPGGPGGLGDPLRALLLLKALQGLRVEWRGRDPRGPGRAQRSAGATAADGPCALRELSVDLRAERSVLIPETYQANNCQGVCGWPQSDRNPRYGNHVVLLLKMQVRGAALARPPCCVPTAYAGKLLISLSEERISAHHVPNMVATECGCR


Columns and labels:
[1] = biological target: T2, bovine AMH procomplex present in serum (Bos taurus, UniProt P03972); assay: ELISA; AMH of bovine, ovine or mouse serum held on plate-captured AMHR2-Fc; detected with biotinylated Mab22A2 (0.5 ug/mL) and streptavidin-HRP; pair: Mab22A2 with serum AMH; settings: one partner purified
T2 construct: anti-Müllerian hormone, bovine, N-terminal pro-domain of the procomplex; anti-Müllerian hormone, bovine, C-terminal mature domain of the procomplex; source: endogenous, serum of one bovine sample

[2] = biological target: T3, mouse AMH procomplex present in serum (Mus musculus, strain , UniProt P27106); assay: as above; settings: one partner purified
T3 construct: anti-Müllerian hormone, mouse, N-terminal pro-domain of the procomplex; anti-Müllerian hormone, mouse, C-terminal mature domain of the procomplex; source: endogenous, serum of one mouse sample

[3] = biological target: T4, ovine AMH procomplex present in serum (Ovis aries, UniProt T1SHH2); assay: as above; settings: one partner purified
T4 construct: anti-Müllerian hormone, ovine, N-terminal pro-domain of the procomplex; anti-Müllerian hormone, ovine, C-terminal mature domain of the procomplex; source: endogenous, serum of one ovine sample

[4] = biological target: T1, human AMH procomplex (completely cleaved AMH, non-covalent complex of the N-terminal and C-terminal homodimers) (human); assay: ELISA; AMH captured on Mab10.6 coated on plates, incubated with various concentrations of AMHR2-Fc; bound AMHR2-Fc detected with anti-human Fc antibody conjugated to HRP; n = 3

T3 sequence (P27106 whole entry, looked up, the tested form may be a part, one chain of several): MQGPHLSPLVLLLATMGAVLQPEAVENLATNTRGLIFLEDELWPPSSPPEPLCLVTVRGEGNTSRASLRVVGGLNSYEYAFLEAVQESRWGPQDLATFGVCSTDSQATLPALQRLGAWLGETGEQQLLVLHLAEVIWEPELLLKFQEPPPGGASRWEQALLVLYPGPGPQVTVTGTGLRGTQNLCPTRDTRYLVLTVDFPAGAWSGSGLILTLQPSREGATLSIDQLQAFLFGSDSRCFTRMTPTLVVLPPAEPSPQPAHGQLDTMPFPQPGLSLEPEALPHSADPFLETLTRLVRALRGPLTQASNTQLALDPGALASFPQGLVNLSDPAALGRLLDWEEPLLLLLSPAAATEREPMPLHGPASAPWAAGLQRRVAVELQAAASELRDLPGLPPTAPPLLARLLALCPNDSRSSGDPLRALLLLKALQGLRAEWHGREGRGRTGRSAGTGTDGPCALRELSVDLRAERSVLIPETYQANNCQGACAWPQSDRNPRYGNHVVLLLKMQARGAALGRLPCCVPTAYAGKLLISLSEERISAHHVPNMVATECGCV

Binder | binding result [1] | binding result [2] | binding result [3] | mean AUC of the ELISA curve [4]
Mab22A2, monoclonal antibody against human AMH (antibody, V domains shown, the text calls the antibody IgG1a; Mouse IgG1 kappa; also called biotinylated Mab22A2; source: mouse monoclonal, previously prepared by immunisation of female BALB/c mice with human AMH precursor; hybridoma cells) VH: QIRLVQSGPELKKPGETVKISCKASGYSFTNYLMHWVKQAPGEALKWMGWINTNIGQPTYAEDFKGRFVFSLEASISTAFLHINSLKDEDTATYFCTSGYFGYDWYFDVWGVGTTVTVSS VL: DIQMTQSPDSLSASVGETVTITCRASENIQNYLAWYQHKQGKSPQLLVYNAQTLANGVSSRFSGSGSGTHYSLNIHSLQPEDFGTYYCQHFWGTPRTFGGGTKLIIK | binds | binds | binds | 
soluble fusion protein containing the extracellular domain of human AMHR2 and the Fc part of human IgG1 (AMHR2-Fc) (Fc fusion) PPNRRTCVFFEAPGVRGSTKTLGELLDTGTELPRAIRCLYSRCCFGIWNLTQDRAQVEMQGCRDSDEPGCESLHCDPSPRAHPSPGSTLFTCSCGTDFCNANYSHLPPPGSPGTPGSQGPQAAPGESIWMAL |  |  |  | 75900
